Laboratory results taken from patent US20160122426A1 (DONG A SOCIO, published 2016).

Legend:
[1] = biological target: T1, mouse VEGF (mouse, UniProt Q00731-2 27-190); test: ELISA, 0.2 µg/ml VEGF coated, scFv or IgG serially diluted
T1 construct: Bought recombinant protein; also called mVEGF-A; mouse VEGF-A
T1 sequence (looked up): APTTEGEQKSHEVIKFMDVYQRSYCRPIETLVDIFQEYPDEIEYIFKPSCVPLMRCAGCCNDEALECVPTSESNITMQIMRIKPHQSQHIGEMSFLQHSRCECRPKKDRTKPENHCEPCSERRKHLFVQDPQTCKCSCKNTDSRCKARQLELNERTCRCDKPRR
Method: ELISA plates were coated with 0.2 μg/ml of human VEGF and mouse VEGF (R&D systems, USA) respectively, and the purified proteins obtained in Example 5 in the form of scFv expressed by HB2151 or IgG expressed by 293F cells were incubated at serially diluted concentrations.

[2] = biological target: T2, human VEGF (human, UniProt P15692-4 27-191); test: ELISA, human VEGF coated, anti-human Fc-HRP, absorbance 450 nm [a]
T2 construct: Bought recombinant protein; also called hVEGF; human VEGF-A
Method: 1.5 ng of human VEGF diluted in 150 μL of buffer solution was placed in 96-well immune plate (Nunc, USA), and adsorbed at 4° C. overnight, followed by washing 3 times with a buffer solution containing 0.1% Tween 20. Then, they were reacted with a buffer solution including 1% bovine serum albumin (Sigma, USA) for 1 hr at room temperature, and washed 3 times. Then each well was treated with 150 μL of serially diluted antibody (1 ng/mL, 10 ng/mL, 30 ng/mL, 100 ng/mL, 1000 ng/mL and 3000 ng/mL) They were allowed to react for 1 hr at room temperature so that antigens may bind to antibodies, followed by washing 3 times with a buffer solution.
Each well was treated at 150 μL per well with anti-human immunoglobulin Fc-HRP antibody (AbSerotec, USA) diluted 1:20000 and allowed to react for 1 hr at room temperature. After the reaction was completed, washing was performed 3 times with a buffer solution, followed by addition of 150 μL of TMB (Sigma, USA) and color development for 10 min. The reaction was terminated with 1N sulfuric acid solution, and absorbance was measured at 450 nm using a spectrophotometer (Molecular Device, USA).

B1: clone F (antibody, V domains shown)
VH: AVTLHESGGGLQTPGGALSLVCKASGFTFSSHGMQWVRQAPGKGLEYVAGISSDGSWTGYGAAVKGRATISRDNGQSTVRLQLNNLRAEDTATYYCARDFSTSYGADSIDAWGHGTEVIVSS
VL: LTQPSSVSANPGETVKITCSGGSNSAYGYGWYQQKSPGSAPVTLIYWDDKRPSDIPSRFSGSASGSTATLTITGVRAEDEAVYFCGAWEYSSDVGIFGAGTTLTVL
notes: Clone from an immunized chicken scFv phage library; also called mother clone F; F clone
B1: binds [1]; binds [2].
